Experimental data reported in patent publication US7745185B1, “Sulfotransferase 1A3 sequence variants” (Mayo Foundation for Medical Education and Research, priority 2003, dated 2010).
Substitutions are numbered along the chain they refer to. Like-named read-outs stand apart in the source and are kept apart here.

B1: Lys234Asn: SULT1A3 polypeptide having an asparagine at amino acid residue 234 (allozyme encoded by thymine at nucleotide 702) (protein, listed as Homo sapiens)
chain: MELIQDTSRPPLEYVKGVPLIKYFAEALGPLQSFQARPDDLLINTYPKSGTTWVSQILDMIYQGGDLEKCNRAPIYVRVPFLEVNDPGEPSGLETLKDTPPPRLIKSHLPLALLPQTLLDQKVKVVYVARNPKDVAVSYYHFHRMEKAHPEPGTWDSFLEKFMAGEVSYGSWYQHVQEWWELSRTHPVLYLFYEDMKENPKREIQKILEFVGRSLPEETMDFMVQHTSFKEMKNNPMTNYTTVPQELMDHSISPFMRKGMAGDWKTTFTVAQNERFDADYAEKMAGCSLSFRSEL
B2: WT: reference SULT1A3 polypeptide (SEQ ID NO:4) that contains a lysine at amino acid residue 234 (protein, listed as Homo sapiens)
chain: B1 chain with N234K

How the values were obtained:
[1] = target: T1, SULT1A3 (Homo sapiens, UniProt P0DMM9, K234N); experiment: SULT1A3 enzyme activity assay (sulfate conjugation of dopamine with PAPS) in COS-1 cytosol preparations; format: biochemical; conditions: recombinant allozyme expressed in COS-1 cells, dopamine 40 μM
T1 construct: made in house; host or cells: COS-1 cells transfected with pCR3.1 construct; high speed supernatant cytosol, unpurified
Description: COS-1 cell expression: Two different SULT1A3 expression constructs were made using the pCR3.1 expression vector. One of the constructs was designed to express the SULT1A3 Lys234Asn allozyme, while the remaining construct was designed to express a wild type SULT1A3 polypeptide. All SULT1A3 cDNA sequences containing SULT1A3 nucleotide sequence variants used to create the expression constructs were created by site directed mutagenesis using the method described by Ho et al. (1989) Gene 77:51-59. Each SULT1A3 cDNA was amplified by PCR and subcloned into the eukaryotic expression vector pCR3.1 (Promega, Madison, Wis.). […]
Enzyme Assays: β-galactosidase activity in each of the COS-1 HSS preparations was measured with the β-galactosidase Enzyme Assay System (Promega, Madison, Wis.). […] The protein concentration of each recombinant protein preparation was determined by the dye-binding method of Bradford with bovine serum albumin (BSA) as a standard.
SULT1A3 enzyme activity was measured with an assay that involves sulfate conjugation of a sulfate acceptor substrate, dopamine (40 μM), in the presence of the sulfate donor 3′-phosphoadenosine-5′-phosphosulfate (PAPS). […] Enzyme activity was expressed as nanomoles (nmoles) of sulfate conjugated product formed per hour of incubation. […]

[2] = target: T2, SULT1A3 (Homo sapiens, UniProt P0DMM9); experiment: Substrate kinetic studies, apparent Km for dopamine and PAPS; format: biochemical; conditions: recombinant enzyme
T2 construct: made in house; host or cells: COS-1 cells transfected with pCR3.1 construct; high speed supernatant cytosol, unpurified
T2 sequence (P0DMM9 whole entry): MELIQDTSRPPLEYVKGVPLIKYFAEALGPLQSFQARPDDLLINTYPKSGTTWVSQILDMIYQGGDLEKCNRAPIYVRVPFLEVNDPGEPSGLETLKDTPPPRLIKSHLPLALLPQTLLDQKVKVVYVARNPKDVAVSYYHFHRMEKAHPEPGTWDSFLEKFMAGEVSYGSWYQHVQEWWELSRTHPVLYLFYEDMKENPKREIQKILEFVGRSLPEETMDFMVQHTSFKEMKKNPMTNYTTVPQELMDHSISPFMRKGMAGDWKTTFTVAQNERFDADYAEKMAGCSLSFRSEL
Experimental: SULT1A3 enzyme activity was measured with an assay that involves sulfate conjugation of a sulfate acceptor substrate, dopamine (40 μM), in the presence of the sulfate donor 3′-phosphoadenosine-5′-phosphosulfate (PAPS). […] Cytosol from COS-1 cells transfected with empty pCR3.1 were used to correct for endogenous SULT activity. Because SULTs display profound substrate inhibition, a range of dopamine concentrations were tested to ensure that the assays were performed at a dopamine concentration that yielded maximal activity for the Lys234Asn allozyme. Enzyme activity was expressed as nanomoles (nmoles) of sulfate conjugated product formed per hour of incubation. Apparent Km values for PAPS were determined in the presence of dopamine, with PAPS concentrations that varied from 0.035 μM to 0.5 μM and dopamine concentrations that varied from 2.5 μM to 80 μM.
Data Analysis: Apparent Km values were calculated by using the method of Wilkinson with a computer program written by Cleland. Wilkinson, Biochem. J., 80:324-332 (1961); and Cleland, Nature, 198:463-365 (1963). Statistical comparisons of data were performed by ANOVA with the StatView program, version 4.5 (Abacus Concepts, Inc., Berkeley, Calif.). Linkage analysis was performed after all DNA samples had been genotyped at each of the 6 polymorphic sites observed. D′ values, a quantitative method for reporting linkage data that is independent of allele frequency (Hartl and Clark, Principles of Population Genetics, 3rd ed. (1997) Sinauer Associates, Inc., (Sunderland, Mass.), pp. 96-106; and Hedrick, Genetics of Populations, 2nd ed. (2000) Jones and Bartlett (Sudbury, Mass.), pp. 396-405), then were calculated. The genotype data also were used to assign inferred haplotypes using a program based on the E-M algorithm (Long et al. (1995) Am. J. Hum. Genet. 56:799-810; and Excoffier and Slatkin (1995) Mol. Biol. Evol. 12:921-927). Unambiguous haplotype assignment also was possible on the basis of genotype for samples that contained no more than one heterozygous polymorphism.
Alterations in amino acid sequence can alter enzyme substrate affinity and/or catalytic efficiency. Substrate kinetic studies were conducted to determine whether the Lys234Asn allozyme differed from the WT SULT1A3 protein in these aspects. A series of dopamine and PAPS concentrations were used to estimate apparent Km values for recombinant wild type SULT1A3 and for the Lys234Asn variant allozyme.

[3] = PAPS 0.035 μM to 0.5 μM in the presence of dopamine, read-out: apparent Km for PAPS
[4] = dopamine 2.5 μM to 80 μM, read-out: apparent Km for dopamine

Molecule | enzyme activity as percentage of WT activity [1] [%] | reduction in enzyme activity ([1]; relative to WT SULT1A3) [%] | Km [2, 3] [µM] | Km [2, 4] [µM]
B1 | 27 | 73 | 0.107 | 9.8
B2 |  |  | 0.112 | 10.4
